Assay results as given in paper PMC10943695, “Neutrophil elastase as a versatile cleavage enzyme for activation of αvβ3 integrin-targeted small molecule drug conjugates with different payload classes in the tumor microenvironment” (Frontiers in Pharmacology, 2024).
Entries after “also recorded” stand apart in the source; their conditions may differ. Read-outs that look alike come from different tables or passages of the source.

Legend:
Stability in rat plasma = format: in vitro ADME; details: 37 °C
Experimental: The SMDC compounds 2, 3, 4, 5 and 6 (1 mg) were dissolved in acetonitrile/DMSO (1:1, 0.5 mL). While vortexing, 20 µL of this solution was added to 1 mL rat plasma at 37 °C. The incubation was stopped at respective time intervals by adding acetonitrile/buffer pH 3 (80:20) and the test compounds and formation of degradation products were analyzed by LC and LC/MS.

[1] = molecular target: T1, human neutrophil elastase (Homo sapiens, UniProt P08246); assay: Human neutrophil elastase cleavability assay; format: biochemical; details: 5 µM SMDC, 20, 40, 60 nM NE, 1 h, 37°C
T1 sequence (P08246 30-267): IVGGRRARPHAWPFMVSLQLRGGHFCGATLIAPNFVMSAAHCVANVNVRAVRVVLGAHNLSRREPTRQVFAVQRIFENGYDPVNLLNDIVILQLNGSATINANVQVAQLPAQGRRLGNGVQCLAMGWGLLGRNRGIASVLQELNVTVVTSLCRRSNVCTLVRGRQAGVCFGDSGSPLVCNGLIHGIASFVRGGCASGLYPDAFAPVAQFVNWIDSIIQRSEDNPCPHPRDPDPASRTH
Experimental: For the NE cleavability assay, the SMDC test compound was added to buffer (150 mM NaCl, 10 mM CaCl2, 0.05% BSA) to a final concentration of 5 µM (0.5% DMSO). The reaction was started by adding different concentrations of human NE (0, 20, 40, 60 nM) to the reaction vials. After incubation for 1 h at 37°C, the enzymatic reaction was stopped by precipitation in 50% ACN. Subsequently, the samples were subjected to HPLC-MS analysis to determine the concentration of test compound and of its metabolite.

[2] = Intravenous pharmacokinetics in rat; format: in vivo; details: male Wistar rats, 0.5 mg/kg SMDC i.v., plasma; for AUC(0-inf) / half-life / clearance / Vd: rat, iv; for clearance: read-out: CLp; for Vd: read-out: Vss
Experimental: Pharmacokinetic properties of SMDCs and their respective payloads were characterized in rats. Briefly, male Wistar rats (n = 3) were given a 0.5 mg/kg dose of SMDC formulated in plasma/DMSO (99:1) intravenously (i.v.) via tail vein. Blood was collected at pre-dose, 2, 5, 15, 30, 45, 60 min, 2, 4, 7, 24 h post-dose and then processed to plasma. Plasma was frozen at < −20°C until sample analysis. Plasma samples were analyzed for concentrations of SMDCs and their respective released payloads by LC-MS/MS.
(§1) Pharmacokinetics of SMDCs and their respective payloads from in vivo studies were determined using mean concentration-time profiles. All pharmacokinetic parameters were calculated by non-compartmental methods as previously described ([Perrier and Gibaldi, 1982]).

[3] = Stability in human plasma; format: in vitro ADME; details: 37 °C
[4] = Plasma and tumor pharmacokinetics in NCI H69 tumor-bearing mice; format: in vivo; details: single dose Compound 3 10 mg/kg IV, analyte conjugate 3 or released payload 8
Experimental: In order to assess the selective concentration of payload to tumor tissue, the pharmacokinetic properties of the SMDC 3 and its payload 8, in plasma and tumor was also characterized in female NMRI nu/nu xenograft mice (Taconic M&B A/S) bearing NCI H69 human small cell lung cancer tumors. The mice were treated i. v. via the tail vein with a single dose of 3 at 10 mg/kg. Plasma and tumor samples were collected at 0.25, 1, 7, and 24 h after treatment (n = 2 mice/group at each time point) and were stored frozen at < −20°C until sample analysis. Concentrations of the SMDCs and their respective payloads were measured by LC-MS/MS.
as §1

[5] = Hydrolytic stability in PBS buffer at pH 7.4; format: physicochemical; details: PBS pH 7.4, 37 °C, 24 h
Experimental: For hydrolytic stability measurement, compounds 2, 3, 4, 5 and 6 (0.15 mg) were dissolved in acetonitrile/DMSO (4:1, 0.5 mL) and 1 mL of PBS buffer at pH 7.4 was then added. The sample solution was analyzed by HPLC to determine the amount of the test compound and the formation of degradation products over a period of 24 h at 37 °C.

786-O (human RCC) cells = assay: In vitro cytotoxicity, MTT assay, in absence or presence of neutrophil elastase; format: cell-based; details: 72 h exposure
Experimental: (§2) 786-O (human RCC), HT-29 (human CRC), NCI-H292 (human NSCLC), NCI-H69 (human SCLC), MX-1 (human TNBC), and SUM149PT (human IBC) cells were acquired from ATCC and cultured according to the provider’s instructions.
(§3) The in vitro cytotoxicity of the SMDCs in comparison to the respective payloads was tested in a panel of cancer cell lines after a 72 h continuous exposure in presence or absence of 20 nM neutrophil elastase using MTT assays (ATCC). IC50 values were determined as the concentration of compound required for 50% inhibition of cell viability.

[6] = test system: SUM149PT (human IBC) cells; assay: as above; format: cell-based; details: 72 h exposure
Experimental: as §2, §3

[7] = test system: NCI-H292 (human NSCLC) cells; assay: as above; format: cell-based; details: 72 h exposure
Experimental: as §2, §3

HT-29 (human CRC) cells = assay: as above; format: cell-based; details: 72 h exposure
Experimental: as §2, §3

NCI H69 SCLC xenograft = assay: In vivo efficacy in NCI H69 SCLC xenograft model; set-up: species or system mice; details: for Body weight changes: NCI H69 model, QWx2 (4: 5 mg/kg; 6: 40 mg/kg)
Experimental: For the NCI H69 study, immunocompromised mice were inoculated subcutaneously with 1.3 × 10^6 NCI H69 cells in 50% Matrigel/50% Media on day 0. Treatment was started at a mean tumor area in the range of […] in the NCI H69 model (n = 8/group, compound 4 at 5 mg/kg i. v., QW, and compound 6 at 40 mg/kg i. v., QW). In an independent experiment in the same CDX xenograft model compound 3 was tested at 10 mg/kg i. v., QW.

[8] = with 20 nM neutrophil elastase, read-out: IC50 786–0 + neutrophil elastase
[9] = without neutrophil elastase, read-out: IC50 786–0
[10] = with 20 nM neutrophil elastase, read-out: IC50 SUM149 PT + neutrophil elastase
[11] = without neutrophil elastase, read-out: IC50 SUM149PT
[12] = with 20 nM neutrophil elastase, read-out: IC50 NCI-H292 + neutrophil elastase
[13] = without neutrophil elastase, read-out: IC50 NCI-H292
[14] = with 20 nM neutrophil elastase, read-out: IC50 HT29 + neutrophil elastase
[15] = without neutrophil elastase, read-out: IC50 HT29

| SMILES | Stability in rat plasma (Stability in rat plasma) | Vss [2] | Stability in human plasma [3] | Stability in buffer pH 7.4 [5] | IC50 (786-O (human RCC) cells; [8]) [nM] | IC50 (786-O (human RCC) cells; [9]) [nM] | IC50 [6, 10] [nM] | IC50 [6, 11] [nM] | IC50 [7, 12] [nM] | IC50 [7, 13] [nM] | IC50 (HT-29 (human CRC) cells; [14]) [nM] | IC50 (HT-29 (human CRC) cells; [15]) [nM] | AUC(0-inf) [2] [µM·h] | half-life [2] [min] | clearance [2] [mL/min/kg] | Vd [2] [L/kg] | Body weight changes (NCI H69 SCLC xenograft) | further results |
| --- | --- | --- | --- | --- | --- | --- | --- | --- | --- | --- | --- | --- | --- | --- | --- | --- | --- | --- |
| CCCNC(=O)Nc1cccc(S(=O)(=O)Nc2cccc([C@@H](CC(=O)O)NC(=O)Nc3ccc(NC(=O)NCCOCCOCCOCCC(=O)N[C@@H](CC(=O)O)C(=O)N4CCC[C@H]4C(=O)N[C@H](C(=O)N=S(C)(=O)Cc4cc5cc(c4)OC(C)CCOc4cc(F)ccc4-c4nc(ncc4F)N5)C(C)C)cc3)c2)c1 (stereo partly drawn) [Compound 3] | highly stable | comparable to plasma volume | highly stable | highly stable | 3.1 | > 1000 | 1.2 | 770 | 4.5 | 880 | 1.9 | 990 |  |  |  |  |  | Cleavage by human NE [1]: essentially completely cleaved; payload/parent AUC ratio ([2]; molar basis, 0.5 mg/kg): 0.307; AUC(0-inf) ([2]; in vivo): 0.801 ± 0.126 µM·h; half-life ([2]; in vivo): 14.4 ± 3 min; clearance ([2]; in vivo): 6.6 ± 0.95 mL/min/kg; Vd ([2]; in vivo): 0.0366 ± 0.0053 L/kg; AUC(0-t) ([4]; mouse, in vivo, plasma): 43 µM·h; Cmax ([4]; mouse, in vivo, plasma): 49 µM; tumor/plasma AUC ratio [4]: 0.126; Tumor growth NCI H69 (NCI H69 SCLC xenograft; 10 mg/kg i.v. weekly, 3 treatment cycles): No significant inhibition |
| CCCNC(=O)Nc1cccc(S(=O)(=O)Nc2cccc([C@@H](CC(=O)O)NC(=O)Nc3ccc(NC(=O)NCCOCCOCCOCCC(=O)N[C@@H](CC(=O)O)C(=O)N4CCC[C@H]4C(=O)N[C@H](C(=O)O[C@@H](c4ccccc4)[C@@H](C)NC(=O)[C@H](C)[C@@H](OC)[C@@H]4CCCN4C(=O)C[C@@H](OC)[C@H]([C@@H](C)CC)N(C)C(=O)[C@@H](NC(=O)[C@@H](NC)C(C)C)C(C)C)C(C)C)cc3)c2)c1 [Compound 4] | highly stable |  | highly stable | highly stable | 6.6 | 660 | 0.51 | 50 | 0.35 | 71 | 0.43 | 78 | 3.03 ± 0.11 | 138 ± 57 | 1.47 ± 0.06 | 0.157 ± 0.015 | very minor |  |
| CCCNC(=O)Nc1cccc(S(=O)(=O)Nc2cccc([C@@H](CC(=O)O)NC(=O)Nc3ccc(NC(=O)NCCOCCOCCOCCC(=O)N[C@@H](CC(=O)O)C(=O)N4CCC[C@H]4C(=O)N[C@H](C(=O)N[C@@H](CCN(C(=O)CO)[C@@H](c4cc(-c5cc(F)ccc5F)cn4Cc4ccccc4)C(C)(C)C)C(=O)NC)C(C)C)cc3)c2)c1 [Compound 6] | highly stable | comparable to plasma volume | highly stable | Very small fractions of a degradation product; also recorded: highly stable | 8.7 |  | 0.6 |  | 1.3 |  | 1.7 |  | 2.98 ± 0.25 | 26.5 ± 1.38 | 1.69 ± 0.15 | 0.0377 ± 0.005 | very minor |  |
